Measurements published in patent US20180044383A1 (ALBERT EINSTEIN COLLEGE OF MEDICINE, published 2018).
Positions count from the first letter of the chain named.

What was measured:
[1] = target: FKBP fused to miRFP-GAF670 (UniProt P62942); assay: cell-based or functional assay
[2] = target: FKBP fused to miRFP-GAF709 (UniProt P62942); assay: cell-based or functional assay
[3] = target: the molecule itself; assay: size exclusion chromatography, self-association (no dimer)
Source text: As a result, we have obtained miRFP670 (excitation/emission at 642 nm/670 nm) having Cys in the GAF domain and its dimmer version miRFP670v1 (Table 1). By changing Cys back to Ile and mutating residues 201 and 202, we found two red-shifted variants, miRFP703 (excitation/emission at 673 nm/703 nm) and miRFP709 (excitation/emission at 686 nm/709 nm) (Table 1). […] Absorbance of miRFPs was characterized by small side peaks at 280 nm (protein absorbance) and 390 nm (so called Soret band common to all tetrapyrrole compounds) and by large main peaks at 644 nm, 676 nm and 685 nm, indicative of the efficient BV incorporation. Monomeric states of miRFPs was confirmed by a size exclusion chromatography at 1 mg/ml as well as at concentrations as high as 30 mg/ml (FIG. 1d).
To perform size exclusion liquid chromatography a 2 ml volume of purified miRFPs was applied on the HiLoad 16/600 Superdex 200 column (GE Healthcare) equilibrated with 10 mM Hepes buffer pH 7.4 containing 50 μM EDTA, 10% glycerol, 150 mM NaCl, 1 mM DTT, 0.2 mM PMSF, 0.01% EP-40 and 0.2 mM […]. A 1 ml/min flow rate was used. The column was calibrated using the gel filtration standards (Bio-Rad Laboratories).

[4] = target: the molecule itself; assay: sedimentation velocity analytical ultracentrifugation in PBS at 20 C, self-association (no dimer)
Experimental: FIG. 11A-11B. Monomeric state of miRFPs confirmed by analytical ultracentrifugation analysis. miRFPs from each family of miRFPs were analyzed by sedimentation velocity analytical ultracentrifugation. miRFP670 represents miRFP proteins derived from RpBphP1; miRFP670-2 represents monomerized iRFP670 and iRFP702 derived from RpBphP6; miRFP720 represents monomerized iRFP682, iRFP713, and iRFP720 derived from RpBphP2. The proteins were analyzed at concentrations of 15 μM in PBS buffer at 20° C., the time-derivative method was used. (a) Overlay of the sedimentation coefficient distributions for iRFP670-2 (blue), iRFP713 (red), miRFP720 (magenta), and miRFP670 (cyan). (b) Overlay of the normalized best-fit sedimentation coefficient distributions. (c) The residuals corresponding to the resolved fits shown in (b).
Analytical ultracentrifugation was conducted at 20° C. and 58,000 r.p.m. with anOptima XL-I centrifuge (Beckman Coulter) using the AN-60Ti rotor and the absorption optics set to 645 nm. Sednterp v.20120828beta software was used to calculate the partial specific volume of the proteins from their sequence and the density and viscosity of the buffers. The sedimentation parameters were corrected to standard conditions (20,w) using these values. […]

[5] = target: T1, miRFP-GAF709; assay: bimolecular fluorescence complementation in HeLa cells (fragments as FRB and FKBP fusions, rapamycin-induced)
T1 construct: Split fragment; in the experiments it stood as a fusion (to FKBP or PCP); also called GAF fragment of miSplit709
T1 chain: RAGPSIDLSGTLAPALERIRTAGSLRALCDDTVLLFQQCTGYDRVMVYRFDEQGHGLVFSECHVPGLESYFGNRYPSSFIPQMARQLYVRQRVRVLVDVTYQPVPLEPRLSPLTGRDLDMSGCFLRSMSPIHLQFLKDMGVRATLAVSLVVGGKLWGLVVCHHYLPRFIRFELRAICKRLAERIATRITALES
Experimental: (§1) The two mSplits share the same miRFP-PAS fragment that can interact with either miRFP-GAF670 or miRFP-GAF709 fragments producing the fluorescence signal corresponding to complemented miSplit670 or miSplit709, respectively. (b, c) Brightness and complementation contrast of miSplit670 (b) and miSplit709 (c) in live HeLa cells. HeLa cells were transiently transfected with the plasmids encoding the indicated proteins. Rapamycin (Rapa) was added where indicated. The mean fluorescence intensities of cells were analyzed by flow cytometry. Error bars, s.d. (n=3; transfection experiments). (d) Two-color imaging of two alternative PPIs in one cell. […] MCP and PCP are fused with two fragments of mi Split reporter. mRNA serves as a scaffold to bring two split fragments together and reconstitute fluorescence. […] The mean fluorescence intensities of cells were analyzed by flow cytometry. […] (g) Representative images of live HeLa cells analyzed in (f). […]
(§2) We first characterized miSplits using a rapamycin-induced PPI of FRB and FKBP proteins. We fused FRB to the miRFP-PAS domain and FKBP to either miRFP-GAF670 or miRFP-GAF709 domains and tested their effective brightness and BiFC contrast (the ratio between a stimulus-induced fluorescence signal and a fluorescence signal originated from non-specific complementation) in mammalian cells.

[6] = target: T2, miRFP-GAF670; assay: as above
T2 construct: Split fragment; in the experiments it stood as a fusion (to FKBP or PCP); also called GAF fragment of miSplit670
T2 chain: T1 chain with F79T, I80V, I131C
Experimental: as §1, §2

## FRB fused to miRFP-PAS (from UniProt P42345 2021-2113)
[1]
  BiFC contrast 0.5 h after rapamycin addition: 2 fold
  BiFC contrast (the ratio between a stimulus-induced fluorescence signal and a fluorescence signal originated from non-specific complementation), miSplit670, HeLa cells, flow cytometry, 50 nM rapamycin: > 20 fold
  effective brightness of the complemented miSplit670 relative to parental full-length miRFP: > 40%
[2]
  BiFC contrast 0.5 h after rapamycin addition: 2 fold
  BiFC contrast (the ratio between a stimulus-induced fluorescence signal and a fluorescence signal originated from non-specific complementation), miSplit709, HeLa cells, flow cytometry, 50 nM rapamycin: > 20 fold
  effective brightness of the complemented miSplit709 relative to parental full-length miRFP: > 40%

B1: miRFP670 (other)
chain: MVAGHASGSPAFGTASHSNCEHEEIHLAGSIQPHGALLVVSEHDHRVIQASANAAEFLNLGSVLGVPLAEIDGDLLIKILPHLDPTAEGMPVAVRCRIGNPSTEYCGLMHRPPEGGLIIELERAGPSIDLSGTLAPALERIRTAGSLRALCDDTVLLFQQCTGYDRVMVYRFDEQGHGLVFSECHVPGLESYFGNRYPSSTVPQMARQLYVRQRVRVLVDVTYQPVPLEPRLSPLTGRDLDMSGCFLRSMSPCHLQFLKDMGVRATLAVSLVVGGKLWGLVVCHHYLPRFIRFELRAICKRLAERIATRITALES
modifications: biliverdin (BV) chromophore; filing says miRFP670 has the BV-binding Cys in the GAF domain (-PIH- motif Ile replaced by Cys)
notes: Monomeric near-infrared fluorescent protein engineered from the PAS-GAF domains of RpBphP1; also called mRFP670
[3]
  binding result: no binding (tested: 30 mg/ml)

B2: miRFP703 (other)
chain: B1 chain with T201L, C253I
modifications: biliverdin (BV) chromophore bound to the conserved Cys residue in the PAS domain
notes: Engineered from RpBphP1 PAS-GAF
[3]
  binding result: no binding (tested: 30 mg/ml)

B3: miRFP709 (other)
chain: B1 chain with T201F, V202I, C253I
modifications: biliverdin (BV) chromophore bound to the conserved Cys residue in the PAS domain
notes: as for B2
[3]
  binding result: no binding (tested: 30 mg/ml)

B4: miRFP670-2 (other)
chain: MARKVDLTSCDREPIHIPGSIQPCGCLLACDAQAVRITRITENAGAFFGRETPRVGELLADYFGETEAHALRNALAQSSDPKRPALIFGWRDGLTGRTFDISLHRHDGTSIIEFEPAAAEQADNPLRLTRQIIARTKELKSLEEMAARVPRYLQAMLGYHRVMLYRFADDGSGMVIGEAKRSDLESFLGQHFPASLVPQQARLLYLKNAIRVVSDSRGISSRIVPEHDASGAALDLSFAHLRSISPCHLEFLRNMGVSASMSLSIIIDGTLWGLIICHHYEPRAVPMAQRVAAKRFAERLSTHFTAAHHQR
modifications: biliverdin (BV) chromophore
notes: Monomerized version of dimeric iRFP670 (derived from RpBphP6); also called monomerized iRFP670
[4]
  binding result: no binding (tested: 15 µM)

B5: miRFP720 (other)
chain: MAEGSVARQPDLLTCDDEPIHIPGAIQPHGLLLALAADMTIVAGSDNLPELTGLAIGALIGRSAADVFDSETHNRLTIALAEPGAAVGAPITVGFTMRKDAGFIGSWHRHDQLIFLELEPPQRDVAEPQAFFRRTNSAIRRLQAAETLESACAAAAQEVRKITGFDRVMIYRFASDFSGSVIAEDRCAEVESKLGLHYPASFIPAQARRLYTINPVRIIPDINYRPVPVTPDLNPVTGRPIDLSFAILRSVSPNHLEFMRNIGMHGTMSISILRGERLWGLIVCHHRTPYYVDLDGRQACKRVAERLATQIGVMEE
modifications: biliverdin (BV) chromophore
notes: Monomerized version of dimeric iRFP720 (derived from RpBphP2); also called monomerized iRFP720
[4]
  binding result: no binding (tested: 15 µM)

B6: miRFP-PAS (other)
chain: MVAGHASGSPAFGTASHSNCEHEEIHLAGSIQPHGALLVVSEHDHRVIQASANAAEFLNLGSVLGVPLAEIDGDLLIKILPHLDPTAEGMPVAVRCRIGNPSTEYCGLMHRPPEGGLIIELERAGP
notes: Split fragment; in the experiments it stood as a fusion (to FRB or to MCP); also called miRFP670-PAS domain; PAS fragment of miSplit670 and miSplit709
[5]
  binding result: binds
[6]
  binding result: binds
